Assay results reported in article PMC7498356.
Changes are numbered by the printed parent chain.

T1: TDRD5 LOTUS domain 1 (L1) (Mus musculus, UniProt Q5VCS6 7-80)
T1 sequence: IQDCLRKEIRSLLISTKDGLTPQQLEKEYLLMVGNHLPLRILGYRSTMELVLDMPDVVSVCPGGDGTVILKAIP

T2: TDRD5 LOTUS domain 2 (L2) (Mus musculus, UniProt Q5VCS6 122-197)
T2 sequence: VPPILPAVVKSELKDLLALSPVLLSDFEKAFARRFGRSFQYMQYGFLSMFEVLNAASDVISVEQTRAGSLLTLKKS

T3: TDRD5 LOTUS domain 3 (L3) (Mus musculus, UniProt Q5VCS6 291-365)
T3 sequence: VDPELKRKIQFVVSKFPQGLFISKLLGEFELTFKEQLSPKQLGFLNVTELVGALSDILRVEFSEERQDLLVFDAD

T4: AT3G52980-LOTUS (plant, UniProt Q9LF94 199-282)
T4 sequence: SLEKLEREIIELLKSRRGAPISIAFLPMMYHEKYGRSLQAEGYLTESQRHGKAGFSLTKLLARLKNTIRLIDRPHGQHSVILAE

T5: human TDRD5 L1 (Homo sapiens, UniProt Q8NAT2 7-80)
T5 sequence: T1 sequence with D3E, T21S, Q24E, S59R, G64A, D65G

T6: Oskar LOTUS (eLOTUS) (Drosophila, UniProt P25158 139-241)
T6 sequence: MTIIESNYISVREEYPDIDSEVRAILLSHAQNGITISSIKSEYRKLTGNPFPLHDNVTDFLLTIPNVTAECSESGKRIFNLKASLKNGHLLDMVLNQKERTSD

T7: human MARF1 L1 (Homo sapiens, UniProt Q9Y4F3 875-949)
T7 sequence: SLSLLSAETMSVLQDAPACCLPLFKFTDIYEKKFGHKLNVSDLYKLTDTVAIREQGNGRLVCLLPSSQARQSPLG

T8: TDRD7 L3 (Mus musculus, UniProt Q8K1H1 325-394)
T8 sequence: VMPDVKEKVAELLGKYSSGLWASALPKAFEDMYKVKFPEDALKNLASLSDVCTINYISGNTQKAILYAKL

T9: TDRD7 L2 (Mus musculus, UniProt Q8K1H1 222-291)
T9 sequence: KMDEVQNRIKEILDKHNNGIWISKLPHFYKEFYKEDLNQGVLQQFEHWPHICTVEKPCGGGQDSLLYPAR

T10: TDRD7 L1 (Mus musculus, UniProt Q8K1H1 3-76)
T10 sequence: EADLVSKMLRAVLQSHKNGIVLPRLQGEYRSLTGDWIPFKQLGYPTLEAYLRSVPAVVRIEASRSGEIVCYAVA

T11: human MARF1 L7 (Homo sapiens, UniProt Q9Y4F3 1411-1485)
T11 sequence: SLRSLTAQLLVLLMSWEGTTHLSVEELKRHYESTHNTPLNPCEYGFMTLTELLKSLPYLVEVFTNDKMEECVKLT

T12: Tejas LOTUS (Drosophila, UniProt A1Z9P1 6-79)
T12 sequence: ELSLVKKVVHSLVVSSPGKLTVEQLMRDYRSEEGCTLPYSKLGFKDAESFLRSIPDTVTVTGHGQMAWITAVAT

T13: TP0894-LOTUS (Treponema pallidum subsp. pallidum str. …, UniProt O83864 178-253)
T13 sequence: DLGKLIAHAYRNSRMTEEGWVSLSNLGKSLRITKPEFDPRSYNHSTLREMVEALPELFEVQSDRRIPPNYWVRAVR

B1: Cluster G4-1 mut RNA (ssRNA)
RNA: GGUCCGCAGCCGAGUCCGGGUCCG
B2: TERRA G4 mut RNA (ssRNA)
RNA: UUACCGUUACCGUUACCGUUACCG
B3: Cluster G4-1 RNA (structured_RNA)
RNA: GGUGGGCAGGGGAGUGGGGGUGGG
B4: Poly(A) (ssRNA)
RNA: AAAAAAAAAAAAAAAAAAA
B5: Poly(U) (ssRNA)
RNA: UUUUUUUUUUUUUUUUUUU
B6: Poly(C) (ssRNA)
RNA: CCCCCCCCCCCCCCCCCCC
B7: TERRA G4 RNA (structured_RNA)
RNA: UUAGGGUUAGGGUUAGGGUUAGGG

The binders below were run against T1, TDRD5 LOTUS domain 1 (L1) (assay: pull-down).

Row | Binder | binding result
1 | B1 | no binding
2 | B2 | no binding

Each binder was assayed against T2, TDRD5 LOTUS domain 2 (L2) (assay: pull-down).

Row | Binder | binding result
3 | B1 | no binding
4 | B2 | no binding

These binders were tested against T3, TDRD5 LOTUS domain 3 (L3) (assay: pull-down).

Row | Binder | binding result
5 | B1 | no binding
6 | B2 | no binding

Each binder was assayed against T1, TDRD5 LOTUS domain 1 (L1) (assay: DRaCALA).

Row | Binder | binding result
7 | B3 | binds

What follows are binders tested against T1, TDRD5 LOTUS domain 1 (L1) (assay: pull-down, ELISA).

Row | Binder | binding result
8 | B4 | no binding
9 | B5 | no binding
10 | B6 | no binding

These binders were tested against T2, TDRD5 LOTUS domain 2 (L2) (assay: pull-down, ELISA).

Row | Binder | binding result
11 | B4 | no binding
12 | B5 | no binding
13 | B6 | no binding

Each binder was assayed against T3, TDRD5 LOTUS domain 3 (L3) (assay: pull-down, ELISA).

Row | Binder | binding result
14 | B4 | no binding
15 | B7 | no binding
16 | B5 | no binding
17 | B3 | no binding
18 | B6 | no binding

Each binder was assayed against T4, AT3G52980-LOTUS (assay: ELISA).

Row | Binder | binding result
19 | B7 | binds
20 | B1 | no binding
21 | B3 | binds
22 | B2 | no binding

These binders were tested against human TDRD7 L1 (Homo sapiens, UniProt Q8NHU6 3-76) (assay: ELISA).
Sequence of human TDRD7 L1 (Q8NHU6 3-76): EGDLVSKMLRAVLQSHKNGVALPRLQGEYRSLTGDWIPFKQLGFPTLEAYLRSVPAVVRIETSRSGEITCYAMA

Row | Binder | binding result
23 | B7 | binds
24 | B1 | no binding
25 | B3 | binds
26 | B2 | no binding

The binders below were run against T5, human TDRD5 L1 (assay: ELISA).

Row | Binder | binding result
27 | B7 | binds
28 | B1 | no binding
29 | B3 | binds
30 | B2 | no binding

The binders below were run against T6, Oskar LOTUS (eLOTUS) (assay: ELISA).

Row | Binder | binding result
31 | B7 | binds
32 | B1 | no binding
33 | B3 | binds
34 | B2 | no binding

These binders were tested against T7, human MARF1 L1 (assay: ELISA).

Row | Binder | binding result
35 | B7 | binds
36 | B1 | no binding
37 | B3 | binds
38 | B2 | no binding

These binders were tested against T8, TDRD7 L3 (assay: ELISA).

Row | Binder | binding result
39 | B7 | binds
40 | B1 | no binding
41 | B3 | binds
42 | B2 | no binding

Each binder was assayed against T9, TDRD7 L2 (assay: ELISA).

Row | Binder | binding result
43 | B7 | binds
44 | B1 | no binding
45 | B3 | binds
46 | B2 | no binding

Each binder was assayed against T10, TDRD7 L1 (assay: ELISA).

Row | Binder | binding result
47 | B7 | binds
48 | B1 | no binding
49 | B3 | binds
50 | B2 | no binding

The binders below were run against T11, human MARF1 L7 (assay: ELISA).

Row | Binder | binding result
51 | B7 | binds
52 | B1 | no binding
53 | B3 | binds
54 | B2 | no binding

Each binder was assayed against T12, Tejas LOTUS (assay: ELISA).

Row | Binder | binding result
55 | B7 | binds
56 | B1 | no binding
57 | B3 | binds
58 | B2 | no binding

These binders were tested against T13, TP0894-LOTUS (assay: ELISA).

Row | Binder | binding result
59 | B7 | binds
60 | B1 | no binding
61 | B3 | binds
62 | B2 | no binding
